According to PMC3466309, “Initial Characterization of the Pf-Int Recombinase from the Malaria Parasite Plasmodium falciparum”:

How the values were obtained:
Pf-Int-C192 = target: T1, Pf-Int-C192 (Plasmodium falciparum 3D7, UniProt C0H5A8 192-490); test: EMSA; 10 ug/ml poly(dI-dC); max shift at ~15-fold higher protein/DNA ratio than without; EMSA: 50 mM Tris pH 8, 150 mM NaCl, 0.1 mM EDTA, 5 mM DTT, 50 ug/ml BSA, 2% glycerol, 0.5% Tween 20, 10 ug/ml poly(dI-dC) unless omitted, 10 nM DNA, 20 min at 20 C; 5% gel in 0.5x TBE at 18 C; settings: protein: recombinant; label: 5'-DY682 on strand 1; blunt
T1 sequence: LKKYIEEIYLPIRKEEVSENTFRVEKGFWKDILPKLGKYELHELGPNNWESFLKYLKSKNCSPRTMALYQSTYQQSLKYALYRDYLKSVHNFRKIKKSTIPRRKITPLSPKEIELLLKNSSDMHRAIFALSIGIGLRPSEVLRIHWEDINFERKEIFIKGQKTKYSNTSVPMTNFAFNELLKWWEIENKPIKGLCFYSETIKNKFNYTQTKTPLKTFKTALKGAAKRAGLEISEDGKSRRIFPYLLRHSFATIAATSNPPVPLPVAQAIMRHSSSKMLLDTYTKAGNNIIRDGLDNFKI

Pf-Int-C162 = target: T2, Pf-Int-C162 (Plasmodium falciparum 3D7, UniProt C0H5A8 162-490); test: EMSA; 10 ug/ml poly(dI-dC); EMSA: 50 mM Tris pH 8, 150 mM NaCl, 0.1 mM EDTA, 5 mM DTT, 50 ug/ml BSA, 2% glycerol, 0.5% Tween 20, 10 ug/ml poly(dI-dC) unless omitted, 10 nM DNA, 20 min at 20 C; 5% gel in 0.5x TBE at 18 C; settings: protein: recombinant; tags: N- or C-terminal His6 versions; label: 5'-DY682 on strand 1; blunt
T2 sequence: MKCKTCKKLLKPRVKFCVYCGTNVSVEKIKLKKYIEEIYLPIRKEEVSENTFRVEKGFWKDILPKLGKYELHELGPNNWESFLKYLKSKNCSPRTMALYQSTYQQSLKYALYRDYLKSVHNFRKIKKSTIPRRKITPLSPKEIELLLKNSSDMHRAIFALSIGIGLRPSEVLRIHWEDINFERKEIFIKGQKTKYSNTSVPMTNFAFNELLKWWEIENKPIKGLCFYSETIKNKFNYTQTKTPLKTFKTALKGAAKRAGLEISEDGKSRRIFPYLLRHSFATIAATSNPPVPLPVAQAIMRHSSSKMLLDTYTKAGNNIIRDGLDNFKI

His6-Pf-Int-C192 = target: T3, His6-Pf-Int-C192 (Plasmodium falciparum 3D7, UniProt C0H5A8 192-490); test: EMSA supershift; 0.04 or 0.2 uM protein; anti-Pf-Int disrupts, anti-His5 supershifts; EMSA: 50 mM Tris pH 8, 150 mM NaCl, 0.1 mM EDTA, 5 mM DTT, 50 ug/ml BSA, 2% glycerol, 0.5% Tween 20, 10 ug/ml poly(dI-dC) unless omitted, 10 nM DNA, 20 min at 20 C; 5% gel in 0.5x TBE at 18 C; settings: protein: recombinant; tags: N-terminal His6; label: 5'-DY682 on strand 1; blunt
T3 sequence: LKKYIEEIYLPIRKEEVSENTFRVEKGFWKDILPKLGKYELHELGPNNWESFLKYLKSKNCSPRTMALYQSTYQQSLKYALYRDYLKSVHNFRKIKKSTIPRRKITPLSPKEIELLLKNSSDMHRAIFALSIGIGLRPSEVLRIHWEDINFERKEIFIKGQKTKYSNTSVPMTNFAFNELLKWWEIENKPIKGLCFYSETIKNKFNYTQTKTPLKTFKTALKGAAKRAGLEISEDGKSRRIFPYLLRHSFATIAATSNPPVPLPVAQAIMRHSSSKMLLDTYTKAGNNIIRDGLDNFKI

B1: Selex8 (dsDNA)
DNA 1: CAAACACACTGTGCGCGCGTCG
DNA 2: CGACGCGCGCACAGTGTGTTTG
Pf-Int-C192
  binding result: binds
Pf-Int-C162
  binding result: no binding
His6-Pf-Int-C192
  binding result: binds
